REVEAL Score data for one substance are collected here from patent US20200121775A1.

In this assay the target is HLA A02:01 class I molecule with β2-microglobulin (human). In words: REVEAL MHC class I binding/stabilization assay (ProImmune).

In the case of positive control peptide (REVEAL assay), the REVEAL Score stood at 100 score.
